The values below come from CN113521276A (JIANGSU QUANXIN BIOMEDICAL CO LTD, dated 2021).

The target of the experiment is T1, 人干扰素α受体1(IFNAR1) (human, UniProt P17181 28-436).
T1 construct: Soluble antigen run over captured antibody in the Biacore assay; also called 人IFNAR1; Human Interferon alpha/beta Receptor 1
T1 sequence: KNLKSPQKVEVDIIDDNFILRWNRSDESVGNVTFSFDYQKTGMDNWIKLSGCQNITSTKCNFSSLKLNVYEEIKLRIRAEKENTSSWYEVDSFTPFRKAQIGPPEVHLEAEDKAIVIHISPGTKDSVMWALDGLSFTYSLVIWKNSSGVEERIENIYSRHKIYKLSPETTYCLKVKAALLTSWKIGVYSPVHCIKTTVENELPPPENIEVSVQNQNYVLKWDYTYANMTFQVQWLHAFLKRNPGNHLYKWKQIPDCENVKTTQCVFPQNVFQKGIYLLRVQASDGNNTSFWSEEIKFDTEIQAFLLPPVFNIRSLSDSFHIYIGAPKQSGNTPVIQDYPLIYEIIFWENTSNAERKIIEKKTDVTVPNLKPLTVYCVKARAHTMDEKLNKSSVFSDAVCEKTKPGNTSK
Briefly: SPR, Biacore T200, antibody captured on Protein A chip, antigen in solution, 25℃, 1:1 model, mean of three runs.

B1: QX006N(HZD1203-45-IgG4.1) (antibody, V domains shown)
VH: EVQLVESGGGLVQPGGSLRLSCAASGFSLSSYYMTWVRQAPGKGLEWVSVINVYGGTYYASWAKGRFTISRDNSKNTLYLQMNSLRAEDTAVYYCAREDVAVYMAIDLWGQGTLVTVSS
VL: AIQMTQSPSSLSASVGDRVTITCQASQSISNQLSWYQQKPGKAPKLLIYDASSLASGVPSRFSGSRSGTKFTLTISSLQPEDFATYYCLGIYGDGADDGIAFGGGTKVEIK
notes: Humanised rabbit antibody from clone 1203#; also called 抗人干扰素α受体1(IFNAR1)单克隆抗体
As to B1, the affinity, expressed as Kd, was 0.108 nM; the koff is 3.76e-05 s⁻¹; the kon is 347000 M⁻¹ s⁻¹.
